{"source": "patent US20140134169A1", "about": "“Methods of Treating Ovarian Cancer with Dll4 Antagonists” (Regeneron Pharmaceuticals, Inc., priority 2012, published 2014)", "type_in_all_cases": "in vivo, human", "key": {"[1]": {"system": "TOV-112D cells", "experiment": "TOV-112D ovarian xenograft (subcutaneous) tumor growth inhibition", "details": "SCID mice (native murine Dll4); REGN421 2.5 mg/kg or mDll4Ab1 5 mg/kg 1x/week", "description": "(§1) Ovarian tumor xenograft cells were implanted into humanized Dll4 SCID mice or vendor SCID mice (i.e., SCID mice expressing native murine Dll4). After implantation, mice were treated with REGN421 (anti-human Dll4 antibody, binds to human Dll4), mDll4Ab1 (anti-murine Dll4 antibody, binds to murine Dll4), or a human Fc domain control protein. In one study, mice were treated with VEGF-Trap, mDll4Ab1 or VEGF-Trap plus mDll4Ab1. TOV-112D cells (5×10^6) were implanted subcutaneously into the right flank of humanized Dll4 (n=4) or vendor SCID mice (n=7). Treatment with REGN421 (2.5 mg/kg, 1×/week) or mDll4Ab1 (5 mg/kg, 1×/week) vs. hFc control was initiated one week after tumor cell implantation. Animals were treated for 2 to 3 weeks. A2780 cells (2×10^6) were implanted intraperitoneally into humanized Dll4 or vendor SCID mice (n=4-5). Treatment with REGN421 (2.5 mg/kg, 1×/week) or mDll4Ab1 (5 mg/kg, 1×/week) vs. hFc control was initiated one week after tumor cell implantation. For the A2780 combination study, simultaneous treatment with mDll4Ab1 (5 mg/kg, 1×/week) and VEGF-Trap (10 mg/kg, 2×/week) was initiated one week after tumor cell implantation. A VEGF-Trap single treatment arm was included in this study. Animals bearing A2780 tumors were treated for 4-5 weeks. SKOV-3 cells (5×10^6) in matrigel were implanted subcutaneously and tumor-bearing animals (n=10) were dosed with REGN421 (2.5 mg/kg) and mDll4Ab1 (5 mg/kg) once weekly. OVCAR-3 cells (1×10^7) were implanted subcutaneously into the right flank of vendor SCID mice (n=7). Treatment with mDll4Ab1 (5 mg/kg 1×/week) vs. hFc control was initiated 66 days after tumor cell implantation. Animals were treated for a total of 5 weeks. Tumor growth inhibition (TGI) was measured as detailed above."}, "[2]": {"system": "A2780 cells", "experiment": "A2780 ovarian xenograft (intraperitoneal) tumor growth inhibition", "details": "SCID mice (native murine Dll4); REGN421 2.5 mg/kg 1x/week, mDll4Ab1 5 mg/kg 1x/week, VEGF-Trap 10 mg/kg 2x/week", "description": "as §1"}, "[3]": {"system": "SKOV-3 cells", "experiment": "SKOV-3 ovarian xenograft (subcutaneous) tumor growth inhibition", "details": "SCID mice; mDll4Ab1 5 mg/kg once weekly", "description": "as §1, with “SKOV-3 cells (5×10^6) in matrigel were implanted subcutaneously and tumor-bearing animals (n=10) were dosed with REGN421 (2.5 mg/kg) and mDll4Ab1 (5 mg/kg) once weekly. OVCAR-3 cells (1×10^7) were implanted subcutaneously into the right flank of vendor SCID mice (n=7). Treatment with mDll4Ab1 (5 mg/kg 1×/week) vs. hFc control was initiated 66 days after tumor cell implantation. Animals were treated for a total of 5 weeks.” left out"}, "[4]": {"system": "OVCAR-3 cells", "experiment": "OVCAR-3 ovarian xenograft (subcutaneous) tumor growth inhibition", "details": "SCID mice; mDll4Ab1 5 mg/kg 1x/week, 5 weeks", "description": "as §1, with “SKOV-3 cells (5×10^6) in matrigel were implanted subcutaneously and tumor-bearing animals (n=10) were dosed with REGN421 (2.5 mg/kg) and mDll4Ab1 (5 mg/kg) once weekly. OVCAR-3 cells (1×10^7) were implanted subcutaneously into the right flank of vendor SCID mice (n=7). Treatment with mDll4Ab1 (5 mg/kg 1×/week) vs. hFc control was initiated 66 days after tumor cell implantation. Animals were treated for a total of 5 weeks.” left out"}, "[5]": {"system": "TOV-112D ovarian tumor xenografts", "experiment": "Tumor microvascular density by CD31 staining, TOV-112D xenograft", "details": "native Dll4 SCID mice", "description": "(§2) Quantitation of tumor microvascular density was evaluated immunohistochemically using CD31 staining. Native Dll4 SCID mice with TOV-112D and SKOV-3 ovarian tumor xenografts were treated with the anti-murine Dll4 antibody mDll4Ab1 or hFc (control). […] A reduction of tumor perfusion was also seen (data not shown)."}, "[6]": {"system": "SKOV-3 ovarian tumor xenografts", "experiment": "Tumor microvascular density by CD31 staining, SKOV-3 xenograft", "details": "native Dll4 SCID mice", "description": "as §2"}, "[7]": {"system": "TOV-112D and SKOV-3 ovarian tumor xenografts", "experiment": "Tumor perfusion in ovarian tumor xenografts", "details": "data not shown", "description": "as §2"}}}
{"molecule": "mDII4Ab1: anti-murine Dll4 antibody with LCVR and HCVR of SEQ ID NO:122 and 123 (antibody) heavy: EVQLVESGGDLVKPGGSLKLSCTASGFTFSNYGMSWVRQTPDKRLGWVATISTAGSYTYYPDSVKGRFTISRDNAKNTLYLQMSSLKSEDTAMYYCARHPGVADFDYWGQGTTLTVSSAKTTAPSVYPLAPVCGDTTGSSVTLGCLVKGYFPEPVTLTWNSGSLSSGVHTFPAVLQSDLYTLSSSVTVTSSTWPSQSITCNVAHPASSTKVDKKIEPRGPTIKPCPPCKCPAPNLLGGPSVFIFPPKIKDVLMISLSPIVTCVVVDVSEDDPDVQISWFVNNVEVHTAQTQTHREDYNSTLRVVSALPIQHQDWMSGKEFKCKVNNKDLPAPIERTISKPKGSVRAPQVYVLPPPEEEMTKKQVTLTCMVTDFMPEDIYVEWTNNGKTELNYKNTEPVLDSDGSYFMYSKLRVEKKNWVERNSYSCSVVHEGLHNHHTTKSFSRTPGK light: DIVMTQSHKFMSISEGDRVSITCKARQDVTTSVAWYQQKPGQSPKLLIYWASTRHTGVPDRFTGSGSGTDFTLTISSVQAEDLALYYCQQHYSTPYTFGGGTKLEIKRADAAPTVSIFPPSSEQLTSGGASVVCFLNNFYPKDINVKWKIDGSERQNGVLNSWTDQDSKDSTYSMSSTLTLTKDEYERHNSYTCEATHKTSTSPIVKSFNRGEC", "values": [{"measurement": "% TGI", "setting": "[1]", "result": 74, "unit": "%"}, {"measurement": "% TGI", "setting": "[2]", "result": 70, "unit": "%"}, {"measurement": "% TGI", "setting": "[3]", "result": 64, "unit": "%"}, {"measurement": "% TGI", "setting": "[4]", "result": 84, "unit": "%"}, {"measurement": "Increase in Vessel Area vs. hFc (%)", "setting": "[5]", "result": 276.5, "unit": "%"}, {"measurement": "Vessel Area (%), percent vessel fraction over total tumor area", "setting": "[5]", "result": 5.53, "unit": "%"}, {"measurement": "Increase in Vessel Area vs. hFc (%)", "setting": "[6]", "result": 146.8, "unit": "%"}, {"measurement": "Vessel Area (%), percent vessel fraction over total tumor area", "setting": "[6]", "result": 4.36, "unit": "%"}, {"measurement": "tumor perfusion", "setting": "[7]", "result": "reduction"}]}
